From the supplement of paper PMC11865577

Tests used:
Test in all cases: pull-down binding Z-score (relative to library population); higher = stronger binding
TO-N3 (biotin conjugate) = details: RNA library: Library-2
In short: (§1)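 A heat-folded, dye-end-labelled (Cy5 or Cy3) RNA library (1 μg, phosphate/NaCl/KCl buffer) was exposed for 60 min at 25 °C to streptavidin beads holding 100 pmol of biotin-conjugated small molecule. RNA retained on the beads was eluted in hot SDS and hybridised to a DNA barcode microarray for 20 h at 55.5 °C. Binding scores were Z-scores against the library mean and standard deviation, calculated after subtracting beads alone and taking trimmed means of replicate probes.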

[1] = tested on: TO-3-N3 (biotin conjugate); details: RNA library: Library-2
In short: as §1

[2] = tested on: TO-N3-2 (biotin conjugate); details: RNA library: Library-2
In short: as §1

[3] = tested on: TO-3-N3-2 (biotin conjugate); details: RNA library: Library-2
In short: as §1

[4] = tested on: G-clamp-N3 (biotin conjugate); details: RNA library: Library-1 (pre-miRNA loops + repeats)
In short: as §1

Sequence | pull-down binding Z-score (TO-N3 (biotin conjugate)) | pull-down binding Z-score [1] | pull-down binding Z-score [2] | pull-down binding Z-score [3] | pull-down binding Z-score [4]
CUUUUGUUCAAAUAAAAAUGCAAAAG [hsa-mir-651] | -1.06 | -0.729 | -1.25 | -0.367 | -0.842
CUUUUUGCCACCUGAGCACAGUCAGCAGUCAGCAUAAAA [hsa-mir-4275] | 1.13 | 0.6 | 1.15 | 0.292 | 0.39
CUUUUUGCUGAUGGAGGGUCUUGCCUCCAUGGGGAUGGCUG [hsa-mir-4502] | 0.938 | 0.828 | 0.571 | 0.159 | 1
GAAAAAUCCCUGUUAACUUUC [hsa-mir-6833] | -0.225 | -0.143 | 0.133 | 0.174 | -0.686
GAAAACUUUGGAGAAAAAUUUUC [hsa-mir-4659a] | -1.04 | -0.765 | -0.857 | -0.258 | -0.714
GAAACAUCUUUUAC [hsa-mir-4514] | -0.551 | -0.428 | -0.469 | -0.191 | -0.862
GAAAUAGGCUGCGAAGAUAACAGUAUUUC [hsa-mir-3942] | -0.979 | -0.872 | -0.482 | -0.17 | 0.773
GAAAUGUGUGGAAGAUGGCAUUUC [hsa-mir-4482] | -0.302 | -0.346 | 0.278 | -0.00894 | 2.74
GAACACUAUUCCAUUGUGUUC [hsa-mir-588] | -1.33 | -0.971 | -1.31 | -0.701 | 0.0194
GAACCCAAGAAAAGCUGACUUGGAGGUCCC [hsa-mir-4667] | 1.47 | 1.21 | 1.27 | 0.578 | -0.432
GAACCCAGGGAGCCAGACUGCCUGGGUUC [hsa-mir-607] | 0.843 | 1.05 | -0.0198 | -0.182 | -0.0852
GAACUAACUAACCAGAACUAUUUUGUUC [hsa-mir-4652] | -0.0697 | 0.249 | -0.742 | 0.0681 | -1.48
GAACUUUUACGGUGAACCAGGAGGUUC [hsa-mir-629] | -0.0515 | 0.0537 | -0.0865 | -0.139 | -0.428
GAAGAAGAAGAAGAAGAAGAAGAAGAAGAAGAAGAAGAAGAAGAAGAA [r(GAA)16] | 3.53 | 1.7 | 3.94 | 3.35 | -1.35
GAAGAUUCUGAAAAUCACUAACU [hsa-mir-6878] | 0.273 | 0.159 | -0.0867 | 0.167 | -1.6
GAAGCACUGGUUAUGAUUUGCAUC [hsa-mir-3126] | 0.0904 | -0.087 | 0.429 | 0.159 | -0.739
GAAGCCGCUCCCACCUGACCCUCACGGCCUC [hsa-mir-3605] | 1.33 | 1.3 | 1.46 | 0.468 | -0.691
GAAGCCUUGAUCAGAAGCUAGGAAGGCUUC [hsa-mir-4762] | 0.654 | 0.782 | 0.593 | 0.433 | 1.95
GAAGCGAGAUGUUUGUCUAAA [hsa-mir-6835] | 0.398 | 0.00611 | 0.915 | 0.262 | -0.211

Sequence | pull-down binding Z-score (TO-N3 (biotin conjugate)) | pull-down binding Z-score [1] | pull-down binding Z-score [2] | pull-down binding Z-score [3] | pull-down binding Z-score [4]
GAAGCUCCUAUAGCUCCUGUAGCUUC [hsa-mir-578] | 0.407 | 0.48 | 0.587 | 0.166 | -0.978
GAAGCUGUAAGACACAGCUAAGCUUU [hsa-mir-30d] | -0.169 | -0.376 | 0.0477 | -0.00751 | -0.32
GAAGCUGUAAGGUGUUCAGAGGAGCUUU [hsa-mir-30e] | 0.977 | 0.57 | 1.1 | 0.908 | 2.63
GAAGCUGUGAAGCCACAGAUGGGCUUU [hsa-mir-30a] | 0.224 | -0.0778 | 0.641 | 0.0568 | 0.763
GAAGGAAGGCAAGGCUGUCUGUCCAUC [hsa-mir-4800] | 1.03 | 0.852 | 0.685 | 0.513 | -1.01
GAAGGGAAGCUGGGAACCUGACUGCCUC [hsa-mir-6867] | 0.961 | 0.688 | 1.66 | 0.402 | -0.151
GAAGGGGAGUUUCCCUCUAUUCCCUUC [hsa-mir-3679] | -0.0396 | 0.265 | -0.594 | -0.155 | -0.729
GAAUGAAAAAAUGAAUCAUC [hsa-mir-421] | -0.29 | -0.311 | -0.0724 | 0.0689 | 0.509
GAAUUCGAUUCAUCAAAGCGAGUC [hsa-mir-485] | 0.0539 | -0.128 | 0.225 | 0.143 | -0.234
GAAUUCGCUUUAUUUAUGUUGAAUC [hsa-mir-377] | -0.944 | -0.514 | -0.874 | -0.33 | -0.856
GACAAUAUGUAUAAUGUUCAUAAGUCAUUC [hsa-mir-384] | 0.444 | 0.197 | -0.0426 | 0.227 | 0.231
GACACCUGGAUUCAGAGAACAUGUC [hsa-mir-1276] | -0.156 | -0.322 | 0.137 | -0.0538 | -0.716
GACACUUUCACUAUAUAUAGUGGC [hsa-mir-3156-3] | -0.354 | -0.049 | -0.533 | -0.0836 | -0.25
GACAGGCUGGCCUCUGGAUGACCUGC [hsa-mir-5189] | 1.4 | 1.18 | 1.37 | -0.186 | 0.679
GACAGGGAAAAGCACACAAGGAACUUGUC [hsa-mir-3909] | -0.0969 | -0.138 | -0.0273 | 0.112 | 0.557
GACAGGGCAGAGGGUUGCGCCCCCUC [hsa-mir-6511b-1_6511b-2_6511a-2_6511a-3_6511a-1_6511a-4] | 0.754 | 0.412 | 1.23 | 0.284 | 1.05
GACAUCCCUCAUCUGUUUCUCACUGGUGUC [hsa-mir-6830] | -0.0985 | 0.191 | -0.507 | 0.244 | -0.521
GACAUCUGGGCCAACUCUGAUCUC [hsa-mir-6515] | 0.113 | -0.163 | 0.777 | -0.126 | -1.32
